T1: soluble human IL-6 receptor (human, UniProt P08887 20-357)
T1 construct: also called hsIL-6R; hIL6R
T1 sequence: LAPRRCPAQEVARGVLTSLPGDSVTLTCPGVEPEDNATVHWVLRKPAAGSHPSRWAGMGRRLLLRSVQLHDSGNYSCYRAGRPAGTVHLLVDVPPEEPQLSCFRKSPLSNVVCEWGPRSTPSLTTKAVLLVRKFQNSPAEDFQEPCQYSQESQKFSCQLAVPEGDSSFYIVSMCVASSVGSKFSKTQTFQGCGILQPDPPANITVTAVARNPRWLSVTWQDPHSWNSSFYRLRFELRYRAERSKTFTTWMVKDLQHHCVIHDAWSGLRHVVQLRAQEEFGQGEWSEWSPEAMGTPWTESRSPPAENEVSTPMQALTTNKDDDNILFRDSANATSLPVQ


What was measured:
[1] = biological target: T1, soluble human IL-6 receptor; assay: SPR (Biacore T100), pH 7.4, 37 C
Experimental: (§1) All samples were measured at 37° C.
(§2) Individual parameters were calculated by use of Biacore T100 Evaluation Software (GE Healthcare).

[2] = biological target: T1, soluble human IL-6 receptor; assay: SPR (Biacore T100), 3 uM CaCl2, pH 7.4, 37 C (summary table)
Experimental: as §1
From the sensorgram obtained by measurement, an association constant, ka (1/Ms) and a dissociation constant kd (1/s) as kinetics parameters were computationally obtained. From the values, KD (M) of each antibody to a human IL-6 receptor was calculated. Individual parameters were calculated by use of Biacore T100 Evaluation Software (GE Healthcare).
as §2

[3] = biological target: T1, soluble human IL-6 receptor; assay: SPR (Biacore T100), 3 uM CaCl2, pH 7.4, 37 C; roughly calculated by Req=C*Rmax/(KD+C)+RI; 3 µM CaCl2; KD estimated by Expression 1

Binder	Ca dependency (KD at 3 uM CaCl2 against KD at 2 mM CaCl2) [1]	Kd [2]	Kd [3]
6RL#9-IgG1 (antibody, V domains shown, Ca-dependent anti-IL-6R antibody from a human phage library) VH: QVQLVQSGAEVKKPGASVKVSCKASGYTFTSYYMHWVRQAPGQGLEWMGIINPSGGSTSYAQKFQGRVTMTRDTSTSTVYMELSSLRSEDTAVYYCARDDPGGGEYYFDYWGQGTLVTVSS VL: QSVLTQPPSVSGAPGQRVTISCTGSRSNMGAGYDVHWYQLLPGAAPKLLISHNTHRPSGVPDRFSGSKSGASASLAITGLQAEDEADYYCQSHDSSLSAVVFGGGTKLTVLS	≥ 120 fold	≥ 31 µM	~31 µM
FH4-IgG1 (antibody, V domains shown, Ca-dependent anti-IL-6R antibody from a human phage library) VH: QVQLVQSGAEVKKPGSSVKVSCKASGGTFSSYAISWVRQAPGQGLEWMGGIIPIFGTANYAQKFQGRVTITADESTSTAYMELSSLRSEDTAVYYCARERDYYDSSGYYDAFDIWGQGTMVTVSS VL: ETTVTQSPSFLSASVGDRVTITCITTTDIDDDMNWFQQEPGKAPKLLISEGNILRPGVPSRFSSSGYGTDFTLTISKLQPEDFATYYCLQSDNLPFTFGQGTKLEIKR	≥ 60 fold	≥ 34 µM	~34 µM

— patent US20150299313A1 (Chugai, published 2015)
